Experiment [1] deals with VN-Exd fusion protein, expressed in Drosophila embryos (Drosophila melanogaster) (UniProt P40427). The experiment is described as follows: split reporter (BiFC, NanoBiT); competition against split Venus BiFC in living Drosophila embryos: an unfused ('cold') protein co-expressed with the two fusion proteins.
The target of experiment [2] is VC-Exd fusion protein, expressed in Drosophila embryos (Drosophila melanogaster) (UniProt P40427). As to the kind of experiment: split reporter (BiFC, NanoBiT); split Venus (VN 1-173, VC 155-238) BiFC in living Drosophila embryos; fusion proteins expressed by UAS/Gal4 (abdA-Gal4, en-Gal4, btl-Gal4 and others); embryos kept at 4°C for 28 h before confocal imaging.
Chain of VC-Exd fusion protein, expressed in Drosophila embryos (Drosophila melanogaster) (P40427 whole entry, the tested form may be a part): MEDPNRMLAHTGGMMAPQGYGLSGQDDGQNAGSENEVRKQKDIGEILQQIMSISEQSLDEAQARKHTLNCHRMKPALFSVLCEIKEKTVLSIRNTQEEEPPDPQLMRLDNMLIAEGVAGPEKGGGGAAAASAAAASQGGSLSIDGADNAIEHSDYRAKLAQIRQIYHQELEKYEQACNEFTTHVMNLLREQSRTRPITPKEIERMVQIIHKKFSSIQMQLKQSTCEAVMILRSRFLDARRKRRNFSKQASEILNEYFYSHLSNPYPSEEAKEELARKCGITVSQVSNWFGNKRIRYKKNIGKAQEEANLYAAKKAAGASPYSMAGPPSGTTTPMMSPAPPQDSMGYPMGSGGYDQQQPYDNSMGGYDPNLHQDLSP

Chain of VN-Exd fusion protein, expressed in Drosophila embryos (Drosophila melanogaster) (P40427 whole entry, the tested form may be a part): as above
Chain of AbdominalA (AbdA), unfused parental wild type protein, expressed in Drosophila embryos, P29555 1-590 (natural protein; other documents disagree on this pair) (P29555 whole entry, the tested form may be a part): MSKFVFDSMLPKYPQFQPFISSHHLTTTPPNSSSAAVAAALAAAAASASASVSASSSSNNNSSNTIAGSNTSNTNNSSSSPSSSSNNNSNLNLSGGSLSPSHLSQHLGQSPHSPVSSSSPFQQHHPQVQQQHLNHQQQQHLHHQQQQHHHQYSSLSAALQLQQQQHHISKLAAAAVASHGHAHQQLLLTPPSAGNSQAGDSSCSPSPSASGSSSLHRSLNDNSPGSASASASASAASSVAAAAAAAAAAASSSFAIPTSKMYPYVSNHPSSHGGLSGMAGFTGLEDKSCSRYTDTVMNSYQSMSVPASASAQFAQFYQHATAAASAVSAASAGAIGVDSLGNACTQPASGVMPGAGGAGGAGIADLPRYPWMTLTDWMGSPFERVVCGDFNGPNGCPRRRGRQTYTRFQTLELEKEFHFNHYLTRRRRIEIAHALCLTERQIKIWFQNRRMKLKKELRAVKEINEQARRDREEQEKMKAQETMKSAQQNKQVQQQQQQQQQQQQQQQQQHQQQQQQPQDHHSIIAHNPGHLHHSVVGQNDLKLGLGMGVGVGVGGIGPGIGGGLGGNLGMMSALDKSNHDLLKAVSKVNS
Chain of VN-AbdA fusion protein, expressed in Drosophila embryos, P29555 1-590 (natural protein; other documents disagree on this pair) (P29555 whole entry, the tested form may be a part): as above

In experiment [1], “AbdominalA (AbdA), unfused parental wild type protein, expressed in Drosophila embryos, P29555 1-590 (natural protein; other documents disagree on this pair)” displayed a percent loss of BiFC between VC-AbdA and VN-Exd of 80%. “VN-AbdA fusion protein, expressed in Drosophila embryos, P29555 1-590 (natural protein; other documents disagree on this pair)” had a fold weaker BiFC signal than VC-AbdA/VN-Exd in experiment [2] of 5 fold.
